Measurements reported in the supplement of paper PMC7877785.
± gives the uncertainty stated by the source.

Test: self-splicing fitness, log relative to wild type (ln ratio); higher = more splicing; Tetrahymena group I intron in knt gene, E. coli kanamycin selection, DiMSum; sequences stand for … in CUCUCU…GGAGGGAAAAGUUAUCAGGCAUGCACCUGGUAGCUAGUCUUUAAACCAAUAGAUUGCAUCGGUUUAAAAGGCAAGACCGUCAAAUUGCGGGAAAGGGGUCAACAGCCGUUCAGUACCAAGUCUCAGGGGAAACUUUGAGAUGGCCUUGCAAAGGGUAUGGUAAUAAGCUGACGGACAUGGUCCUAACCACGCAGCCAAGUCCUAAGUCAACAGAUCUUCUGUUGAUAUGGAUGCAGUUCACAGACUAAAUGUCGGUCGGGGAAGAUGUAUUCUUCUCAUAAGAUAUAGUCGGACCUCUCCUUAAUGGGAGCUAGCGGAUGAAGUGAUGCAACACUGGAGCCGCUGGGAACUAAUUUGUAUGCGAAAGUAUAUUGAUUAGUUUUGGAGUACUCGUGGUCG
In short: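 Library with all eight P1ex-region intron nucleotides randomised, intron inside the knt kanamycin-resistance gene on pET-22b(+), in E. coli BL21(DE3). Cells grew overnight at 37°C or 30°C on LB agar with or without 25 μg/mL kanamycin (plus 100 μg/mL carbenicillin, 50 μM IPTG, 0.2% rhamnose), in six replicate transformations. Pooled colonies were amplicon-sequenced on Illumina HiSeq 2500. DiMSum fitness is the error-weighted combination of wild-type-normalised replicate fold changes, kanamycin versus none.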

Sequence	self-splicing fitness (ln) (30 °C)	self-splicing fitness (ln) (37 °C)
GUUCAGCAAUAUUACGGAGU	-1.48 ± 0.12	-0.963 ± 0.15
GUUCAGCAAUAUUACGGGAA	-1.16 ± 0.14	-0.278 ± 0.13
GUUCAGCAAUAUUACGGGAC	-2.39 ± 0.18	-1.16 ± 0.19
GUUCAGCAAUAUUACGGUAU	-0.357 ± 0.062	0.309 ± 0.073
GUUCAGCAAUAUUACGGUUC	-1.66 ± 0.14	0.019 ± 0.18
GUUCAGCAAUAUUACGUCAG	-3.88 ± 0.23	-3.07 ± 0.24
GUUCAGCAAUAUUACGUCUC	-0.362 ± 0.065	0.216 ± 0.083
GUUCAGCAAUAUUACGUGAC	-1.85 ± 0.11	-2.22 ± 0.12
GUUCAGCAAUAUUACGUGUA	-0.88 ± 0.078	-0.647 ± 0.071
GUUCAGCAAUAUUACGUUGA	-3.12 ± 0.28	-1.57 ± 0.17
GUUCAGCAAUAUUACGUUUC	-0.965 ± 0.07	-0.339 ± 0.084
GUUGAGCAAUAUUACGAGAG	-3.95 ± 0.4	-2.63 ± 0.41
GUUGAGCAAUAUUACGCAUC	-1.26 ± 0.25	
GUUGAGCAAUAUUACGCGGU	-3.32 ± 0.41	-2.73 ± 0.34
GUUGAGCAAUAUUACGCUAG	-3.01 ± 0.44	
GUUGAGCAAUAUUACGCUGU	-4.02 ± 0.22	-2.15 ± 0.19
GUUGAGCAAUAUUACGGAAC	-1.6 ± 0.43	
GUUGAGCAAUAUUACGGAGC	-1.01 ± 0.2	-2.82 ± 0.3
GUUGAGCAAUAUUACGGAUC	-1.91 ± 0.14	-1.16 ± 0.14
GUUGAGCAAUAUUACGGCCA		-0.675 ± 0.24
GUUGAGCAAUAUUACGGCUA	-0.763 ± 0.18	-0.798 ± 0.19
GUUGAGCAAUAUUACGGUAG	-4.24 ± 0.46	-1.94 ± 0.41
GUUGAGCAAUAUUACGGUUU	-4.2 ± 0.33	-2.73 ± 0.32
GUUGAGCAAUAUUACGUAUU	-3.74 ± 0.47	
GUUGAGCAAUAUUACGUCUA	-2.72 ± 0.46	-0.927 ± 0.24

Sequence	self-splicing fitness (ln) (30 °C)	self-splicing fitness (ln) (37 °C)
GUUGAGCAAUAUUACGUGCG	-3.02 ± 0.21	-2.07 ± 0.25
GUUGAGCAAUAUUACGUGGG	-3.09 ± 0.23	-1.97 ± 0.18
GUUGAGCAAUAUUACGUGUG	-3.65 ± 0.34	-3.15 ± 0.32
GUUGAGCAAUAUUACGUUCA	-2.3 ± 0.5	-1.52 ± 0.25
GUUUAGCAAUAUUACGAACG	-1.78 ± 0.21	-1.03 ± 0.29
GUUUAGCAAUAUUACGACCU	-1.03 ± 0.11	-0.456 ± 0.14
GUUUAGCAAUAUUACGACUU	-0.551 ± 0.11	0.304 ± 0.14
GUUUAGCAAUAUUACGAUAC	-1.44 ± 0.18	-0.147 ± 0.28
GUUUAGCAAUAUUACGAUCC	-0.72 ± 0.26	-0.434 ± 0.32
GUUUAGCAAUAUUACGAUUC	-0.603 ± 0.098	0.273 ± 0.14
GUUUAGCAAUAUUACGCAAC	-3.59 ± 0.48	-2.14 ± 0.39
GUUUAGCAAUAUUACGCAUG	-2.59 ± 0.18	-0.4 ± 0.18
GUUUAGCAAUAUUACGCCAU	-1.68 ± 0.4	
GUUUAGCAAUAUUACGCGAG	-1.48 ± 0.17	-0.934 ± 0.16
GUUUAGCAAUAUUACGCGCG	-0.802 ± 0.1	-0.0312 ± 0.18
GUUUAGCAAUAUUACGCGGC	-1.26 ± 0.49	
GUUUAGCAAUAUUACGCGGU	-2.3 ± 0.45	-1.95 ± 0.36
GUUUAGCAAUAUUACGGACA	-1.68 ± 0.25	-1.44 ± 0.25
GUUUAGCAAUAUUACGGCUU	-1.08 ± 0.13	-0.894 ± 0.12
GUUUAGCAAUAUUACGGGAU	-2.57 ± 0.14	-1 ± 0.15
GUUUAGCAAUAUUACGGGGA	-3.57 ± 0.37	-1.41 ± 0.22
GUUUAGCAAUAUUACGGUGA	-1.84 ± 0.2	-0.461 ± 0.18
GUUUAGCAAUAUUACGUAGG	-2.77 ± 0.13	-0.822 ± 0.14
GUUUAGCAAUAUUACGUAUG	-2.29 ± 0.21	-0.712 ± 0.17
GUUUAGCAAUAUUACGUAUU	-2.91 ± 0.21	-1.38 ± 0.17

Sequence	self-splicing fitness (ln) (30 °C)	self-splicing fitness (ln) (37 °C)
GUUUAGCAAUAUUACGUCGG	-2.06 ± 0.18	-2.12 ± 0.21
GUUUAGCAAUAUUACGUUGU	-4.02 ± 0.21	-2.17 ± 0.16
GUUUAGCAAUAUUACGUUUA	-2.69 ± 0.23	-0.853 ± 0.17
UAAAAGCAAUAUUACGAAAG	-2.21 ± 0.17	-1.56 ± 0.16
UAAAAGCAAUAUUACGAAGA	-2.44 ± 0.11	-1.12 ± 0.097
UAAAAGCAAUAUUACGAAGC	-3.23 ± 0.3	-3.29 ± 0.46
UAAAAGCAAUAUUACGAAUA	-0.61 ± 0.11	-0.627 ± 0.11
UAAAAGCAAUAUUACGACGU	-0.791 ± 0.13	-0.527 ± 0.12
UAAAAGCAAUAUUACGAUGC	-3.82 ± 0.29	-2.3 ± 0.18
UAAAAGCAAUAUUACGAUUG	-1.18 ± 0.087	-0.639 ± 0.11
UAAAAGCAAUAUUACGCAAU	-3.58 ± 0.17	-1.6 ± 0.13
UAAAAGCAAUAUUACGCACU	-0.274 ± 0.056	0.0996 ± 0.068
UAAAAGCAAUAUUACGCCGC		-1.17 ± 0.23
UAAAAGCAAUAUUACGCCUU	-1.53 ± 0.12	-0.42 ± 0.12
UAAAAGCAAUAUUACGCGUA	-1.12 ± 0.11	-0.0821 ± 0.096
UAAAAGCAAUAUUACGCGUC	-3.53 ± 0.24	-2.7 ± 0.21
UAAAAGCAAUAUUACGGAUA	-1.35 ± 0.12	0.0185 ± 0.12
UAAAAGCAAUAUUACGGCUC	-1.05 ± 0.12	0.168 ± 0.17
UAAAAGCAAUAUUACGGGCA	-0.521 ± 0.094	0.0848 ± 0.1
UAAAAGCAAUAUUACGGGCC	-1.68 ± 0.2	-2.04 ± 0.38
UAAAAGCAAUAUUACGGGGC	-3.59 ± 0.23	-2.33 ± 0.25
UAAAAGCAAUAUUACGGGGU	-3.96 ± 0.17	-3.21 ± 0.2
UAAAAGCAAUAUUACGGUCC	-2.84 ± 0.17	-2.03 ± 0.21
UAAAAGCAAUAUUACGUAAC	-3.84 ± 0.33	-2.02 ± 0.3
UAAAAGCAAUAUUACGUAGU	-3.36 ± 0.12	-2.83 ± 0.14

Sequence	self-splicing fitness (ln) (30 °C)	self-splicing fitness (ln) (37 °C)
UAAAAGCAAUAUUACGUAUA	-1.82 ± 0.12	-0.643 ± 0.12
UAAAAGCAAUAUUACGUGUC	-3.12 ± 0.25	-2.5 ± 0.2
UAAAAGCAAUAUUACGUUAU	-3.59 ± 0.16	-2.41 ± 0.13
UAACAGCAAUAUUACGAACA	-0.546 ± 0.072	0.297 ± 0.087
UAACAGCAAUAUUACGAAGG	-1.76 ± 0.083	-1.78 ± 0.12
UAACAGCAAUAUUACGACAA	-0.503 ± 0.094	0.136 ± 0.096
UAACAGCAAUAUUACGACCG	-0.596 ± 0.09	-0.323 ± 0.11
UAACAGCAAUAUUACGAGCG	-0.617 ± 0.055	0.286 ± 0.069
UAACAGCAAUAUUACGAUUA	-0.131 ± 0.047	-0.103 ± 0.058
UAACAGCAAUAUUACGCAAG	-2.08 ± 0.078	-2.23 ± 0.074
UAACAGCAAUAUUACGCAGC	-4.12 ± 0.37	-3.15 ± 0.4
UAACAGCAAUAUUACGCCUC	-2.18 ± 0.35	-2.06 ± 0.33
UAACAGCAAUAUUACGCGUU	-3.66 ± 0.1	-3.01 ± 0.13
UAACAGCAAUAUUACGGACA	-0.353 ± 0.085	-0.527 ± 0.1
UAACAGCAAUAUUACGGACG	-0.143 ± 0.055	0.21 ± 0.079
UAACAGCAAUAUUACGGCAA	-0.777 ± 0.089	0.203 ± 0.096
UAACAGCAAUAUUACGGCUG	-2.55 ± 0.095	-0.978 ± 0.12
UAACAGCAAUAUUACGGUAG	-1.7 ± 0.07	-0.0293 ± 0.076
UAACAGCAAUAUUACGUACU	-1.07 ± 0.063	-0.454 ± 0.068
UAACAGCAAUAUUACGUCAA	-2.17 ± 0.15	-0.769 ± 0.1
UAACAGCAAUAUUACGUCUG	-0.467 ± 0.059	0.248 ± 0.077
UAACAGCAAUAUUACGUUAG	-2.24 ± 0.087	-0.961 ± 0.086
